Laboratory results taken from patent publication US20230265217A1 (TWIST BIOSCIENCE, published 2023).
Like-named read-outs stand apart in the source and are kept apart here.

Assays:
[1] = target: T1, SARS-CoV-2 S protein trimer (Beta B.1.351 SA variant) [SPN-C52Hk] (SARS-CoV-2, UniProt P0DTC2 16-1213); assay: binding kinetics, Carterra SPR
T1 construct: also called B.1.351 Beta SA variant

[2] = target: SARS-CoV-2 S protein trimer [SPN-C52H9] (SARS-CoV-2, UniProt P0DTC2 16-1213); assay: binding kinetics, Carterra SPR
[3] = target: T2, Antibody 178-09_His B.1.1.7 (27080) (SARS-CoV-2, UniProt P0DTC2 14-685); assay: Carterra SPR
T2 construct: domain: S1; also called TB178-9

[4] = target: T3, Antibody 178-08_His 501.V2 (27079) (SARS-CoV-2, UniProt P0DTC2 14-685); assay: Carterra SPR
T3 construct: domain: S1; also called TB178-8

[5] = target: T4, S1 RBD L452R E484Q (Acro) (SARS-CoV-2, UniProt P0DTC2 319-537); assay: Carterra SPR
T4 construct: domain: S1 RBD; also called SARS-COV-2 RBD India Var; L452R E484Q S1; India variant mutation L452R E484Q

[6] = target: T5, Antibody 178-10_His CA_W152C_L452R_D614G (27081) (SARS-CoV-2, UniProt P0DTC2 14-685); assay: Carterra SPR
T5 construct: domain: S1; also called CA variant S1; California variant S1

[7] = target: T2, Antibody 178-09_His B.1.1.7 (27080); assay: Carterra SPR; remark: listed apart in the source
[8] = target: T3, Antibody 178-08_His 501.V2 (27079); assay: Carterra SPR; remark: listed apart in the source
[9] = target: T4, S1 RBD L452R E484Q (Acro); assay: Carterra SPR; remark: listed apart in the source
[10] = target: T5, Antibody 178-10_His …; assay: Carterra SPR; remark: listed apart in the source
[11] = target: T6, SARS-CoV-2 S protein trimer (Delta B.1.617.2 India variant) [SPN-C52He] (SARS-CoV-2, UniProt P0DTC2 16-1213); assay: binding kinetics, Carterra SPR
T6 construct: also called B.1.617.2 Delta India variant [SPN-C52he]

[12] = target: T7, SARS-CoV-2 S protein trimer (Alpha B.1.1.7 UK variant) [SPN-C52H6] (SARS-CoV-2, UniProt P0DTC2 16-1213); assay: binding kinetics, Carterra SPR
T7 construct: also called B.1.1.7 Alpha UK variant

[13] = target: T8, SARS-CoV-2 S protein trimer (Kappa B.1.617.1 India variant) [SPN-C52Hr] (SARS-CoV-2, UniProt P0DTC2 16-1213); assay: binding kinetics, Carterra SPR
T8 construct: also called B.1.617.1 Kappa India variant

[14] = target: SARS-CoV-2 S protein trimer (P.1 Gamma Brazil variant) [SPN-C52Hg] (SARS-CoV-2, UniProt P0DTC2 16-1213); assay: Carterra SPR
[15] = target: T6, SARS-CoV-2 S protein trimer (Delta …); assay: Carterra SPR
[16] = target: T7, SARS-CoV-2 S protein trimer (Alpha …); assay: Carterra SPR
[17] = target: SARS-CoV-2 S protein trimer [SPN-C52H7] (SARS-CoV-2, UniProt P0DTC2 16-1213); assay: Carterra SPR
[18] = target: T9, SARS-CoV-2 S1 [S1N-C52H4] (SARS-CoV-2, UniProt P0DTC2 16-685); assay: Carterra SPR
T9 construct: domain: S1

[19] = target: T8, SARS-CoV-2 S protein trimer (Kappa …); assay: Carterra SPR
[20] = target: T1, SARS-CoV-2 S protein trimer (Beta …); assay: Carterra SPR

B1: 7-14 (VHH)
VHH: EVQLVESGGGLVQPGGSLRLSCAASGSTFSINAMGWFRQAPGKEREFVAGISRGGTTNYADSVKGRFTISADNSKNTAYLQMNSLKPEDTAVYYCAADGVPEYSDYASGPVWGQGTLVTVSS
In the case of B1, the Kd [1] is reported as 0.00853 nM, the koff [1] is reported as 1.05e-05 s⁻¹ and the kon [1] is reported as 1.23e+06 M⁻¹ s⁻¹. It also gave a Kd [2] of no more than 0.0105 nM, a koff [2] of no more than 1e-05 s⁻¹ and a kon [2] of 954000 M⁻¹ s⁻¹. The Kd [3] was 19.2 nM, the Kd [4] was 16.9 nM and the Kd [5] was 20.1 nM. The Kd [6] was 43.1 nM, the Kd [7] was 19.2 nM and the Kd [8] was 16.9 nM. It also gave a Kd [9] of 20.1 nM, a Kd [10] of 43.1 nM and a Kd [11] of no more than 0.00994 nM. The koff [11] was no more than 1e-05 s⁻¹, the kon [11] was 1.01e+06 M⁻¹ s⁻¹ and the Kd [12] was no more than 0.00862 nM. It also gave a koff [12] of no more than 1e-05 s⁻¹, a kon [12] of 1.16e+06 M⁻¹ s⁻¹ and a Kd [13] of no more than 0.0083 nM. The koff [13] was no more than 1e-05 s⁻¹, the kon [13] was 1.2e+06 M⁻¹ s⁻¹ and the Kd [14] was 0.0185 nM. The koff [14] was 1.62e-05 s⁻¹, the kon [14] was 877000 M⁻¹ s⁻¹ and the Kd [15] was 0.0122 nM. It also gave a koff [15] of 1e-05 s⁻¹, a kon [15] of 818000 M⁻¹ s⁻¹ and a Kd [16] of 0.0128 nM. It also gave a koff [16] of 1e-05 s⁻¹, a kon [16] of 782000 M⁻¹ s⁻¹ and a Kd [17] of no more than 0.0142 nM. It also gave a koff [17] of no more than 1e-05 s⁻¹, a kon [17] of 703000 M⁻¹ s⁻¹ and a Kd [18] of 12.4 nM. The koff [18] was 0.000464 s⁻¹, the kon [18] was 37400 M⁻¹ s⁻¹ and the Kd [19] was 0.012 nM. The koff [19] was 1e-05 s⁻¹, the kon [19] was 835000 M⁻¹ s⁻¹ and the Kd [20] was 0.0171 nM. It also gave a koff [20] of 1.6e-05 s⁻¹ and a kon [20] of 931000 M⁻¹ s⁻¹.

B2: 7-09 (VHH)
VHH: EVQLVESGGGLVQPGGSLRLSCAASGGTFSSIGMGWFRQAPGKEREFVAAISWDGGATAYADSVKGRFTISADNSKNTAYLQMNSLKPEDTAVYYCAKEDVGKPFDWGQGTLVTVSS
notes: also called 7-9
B2 gave a Kd [3] of 23.2 nM, a Kd [5] of 177000 nM and a Kd [6] of 38.7 nM. For the same binder, the Kd [7] was 23.2 nM, the binding result [8] was “no binding” and the Kd [9] was 177000 nM. For the same binder, the Kd [10] was 38.7 nM.

B3: 7-37 (VHH)
VHH: EVQLVESGGGLVQPGGSLRLSCAASGSTLSINAMGWFRQAPGKEREFVAGITRSGSVTNYADSVKGRFTISADNSKNTAYLQMNSLKPEDTAVYYCAADGVPEYSDYASGPVWGQGTLVTVSS
With B3 the Kd [1] was 0.0224 nM, the koff [1] was 2.3e-05 s⁻¹ and the kon [1] was 1.03e+06 M⁻¹ s⁻¹. It also gave a Kd [2] of no more than 0.0118 nM, a koff [2] of no more than 1e-05 s⁻¹ and a kon [2] of 844000 M⁻¹ s⁻¹. It also gave a Kd [3] of 17.8 nM, a Kd [4] of 123 nM and a Kd [5] of 58.5 nM. For the same binder, the Kd [6] was 45.1 nM, the Kd [7] was 17.8 nM and the Kd [8] was 123 nM. The Kd [9] was 58.5 nM, the Kd [10] was 45.1 nM and the Kd [11] was no more than 0.0102 nM. For the same binder, the koff [11] was no more than 1e-05 s⁻¹, the kon [11] was 978000 M⁻¹ s⁻¹ and the Kd [12] was 0.0131 nM. For the same binder, the koff [12] was 1.15e-05 s⁻¹, the kon [12] was 875000 M⁻¹ s⁻¹ and the Kd [13] was 0.0171 nM. It also gave a koff [13] of 1.67e-05 s⁻¹, a kon [13] of 977000 M⁻¹ s⁻¹ and a Kd [14] of 0.0322 nM. It also gave a koff [14] of 2.92e-05 s⁻¹, a kon [14] of 906000 M⁻¹ s⁻¹ and a Kd [15] of 0.0191 nM. It also gave a koff [15] of 1.62e-05 s⁻¹, a kon [15] of 844000 M⁻¹ s⁻¹ and a Kd [16] of 0.0201 nM. It also gave a koff [16] of 1.52e-05 s⁻¹, a kon [16] of 757000 M⁻¹ s⁻¹ and a Kd [17] of 0.026 nM. The koff [17] was 1.77e-05 s⁻¹, the kon [17] was 680000 M⁻¹ s⁻¹ and the Kd [18] was 20.8 nM. The koff [18] was 0.000651 s⁻¹, the kon [18] was 31400 M⁻¹ s⁻¹ and the Kd [19] was 0.0276 nM. It also gave a koff [19] of 2.38e-05 s⁻¹, a kon [19] of 862000 M⁻¹ s⁻¹ and a Kd [20] of 0.03 nM. The koff [20] was 2.83e-05 s⁻¹ and the kon [20] was 944000 M⁻¹ s⁻¹.
